In publication PMC10702411:

Key:
[1] = molecular target: C-terminal fluorescein-labeled H3 peptide (1–12) (UniProt P68431); assay: MST
[2] = molecular target: third BIR domain of BIRC2 (BIRC2_(BIR3)), GST cleaved (human) (UniProt Q13490); assay: other fluorescence titration
third BIR domain of BIRC2 (BIRC2_(BIR3)), GST cleaved (human), sequence (Q13490 261-346): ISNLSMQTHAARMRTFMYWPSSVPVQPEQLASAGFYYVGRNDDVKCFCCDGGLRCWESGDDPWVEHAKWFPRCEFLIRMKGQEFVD

Kd [1] [nM]	Kd [2] [nM]	Substance
340		third BIR domain of BIRC2 (BIRC2_(BIR3)), GST cleaved (from UniProt Q13490 261-346) (domain or fragment)
	400	H3_(1–12) peptide (residues 1–12 of H3) (from UniProt P68431 2-13)
